# Data: article PMC5779224, “Autoinhibition of ankyrin-B/G membrane target bindings by intrinsically disordered segments from the tail regions” (eLife, 2017)
# T1: AnkB_MBD (AnkB ANK repeats only, aa 28–827) (human, UniProt Q01484-2 28-827)
# T1 construct: ankyrin-B (AnkB), human 220 kDa isoform, residues 28-827: the 24 ANK repeats (MBD), no linker; numbers count on: human 220 kDa AnkB NM_020977.3; Poor quality in 100 mM NaCl buffer; also called AnkB 28–827; source: E. coli BL21 (DE3), purified (Ni2+-NTA, size exclusion)
# T1 sequence (looked up): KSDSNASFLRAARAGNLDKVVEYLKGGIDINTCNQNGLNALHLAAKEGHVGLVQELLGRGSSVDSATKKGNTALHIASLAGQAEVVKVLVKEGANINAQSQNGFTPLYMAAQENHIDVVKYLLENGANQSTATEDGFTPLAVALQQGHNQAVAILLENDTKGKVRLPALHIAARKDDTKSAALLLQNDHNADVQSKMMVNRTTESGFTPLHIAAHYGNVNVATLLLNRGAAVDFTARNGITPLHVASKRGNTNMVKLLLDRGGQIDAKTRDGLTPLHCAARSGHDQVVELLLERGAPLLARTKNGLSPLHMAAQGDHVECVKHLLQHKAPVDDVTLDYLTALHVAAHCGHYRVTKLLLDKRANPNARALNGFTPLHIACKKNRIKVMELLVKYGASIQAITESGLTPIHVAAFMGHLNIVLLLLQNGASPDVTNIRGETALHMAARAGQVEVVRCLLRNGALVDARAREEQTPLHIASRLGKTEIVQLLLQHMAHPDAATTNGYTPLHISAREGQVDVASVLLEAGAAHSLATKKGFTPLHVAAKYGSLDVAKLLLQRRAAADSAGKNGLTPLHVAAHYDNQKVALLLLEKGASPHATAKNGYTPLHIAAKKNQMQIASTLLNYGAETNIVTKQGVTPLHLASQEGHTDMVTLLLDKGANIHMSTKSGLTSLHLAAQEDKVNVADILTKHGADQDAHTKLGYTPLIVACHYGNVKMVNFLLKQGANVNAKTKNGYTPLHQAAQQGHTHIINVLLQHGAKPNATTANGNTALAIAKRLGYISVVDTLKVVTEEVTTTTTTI
# T2: AnkB 28–847 (MBD + partial AI-c) (human, UniProt Q01484-2 28-847)
# T2 construct: ankyrin-B (AnkB), human 220 kDa isoform, residues 28-847: MBD and a short 20-residue linker; numbers count on: human 220 kDa AnkB NM_020977.3; also called extended MBD with a short 20-residue linker; source: E. coli BL21 (DE3), purified (Ni2+-NTA, size exclusion)
# T2 sequence (looked up): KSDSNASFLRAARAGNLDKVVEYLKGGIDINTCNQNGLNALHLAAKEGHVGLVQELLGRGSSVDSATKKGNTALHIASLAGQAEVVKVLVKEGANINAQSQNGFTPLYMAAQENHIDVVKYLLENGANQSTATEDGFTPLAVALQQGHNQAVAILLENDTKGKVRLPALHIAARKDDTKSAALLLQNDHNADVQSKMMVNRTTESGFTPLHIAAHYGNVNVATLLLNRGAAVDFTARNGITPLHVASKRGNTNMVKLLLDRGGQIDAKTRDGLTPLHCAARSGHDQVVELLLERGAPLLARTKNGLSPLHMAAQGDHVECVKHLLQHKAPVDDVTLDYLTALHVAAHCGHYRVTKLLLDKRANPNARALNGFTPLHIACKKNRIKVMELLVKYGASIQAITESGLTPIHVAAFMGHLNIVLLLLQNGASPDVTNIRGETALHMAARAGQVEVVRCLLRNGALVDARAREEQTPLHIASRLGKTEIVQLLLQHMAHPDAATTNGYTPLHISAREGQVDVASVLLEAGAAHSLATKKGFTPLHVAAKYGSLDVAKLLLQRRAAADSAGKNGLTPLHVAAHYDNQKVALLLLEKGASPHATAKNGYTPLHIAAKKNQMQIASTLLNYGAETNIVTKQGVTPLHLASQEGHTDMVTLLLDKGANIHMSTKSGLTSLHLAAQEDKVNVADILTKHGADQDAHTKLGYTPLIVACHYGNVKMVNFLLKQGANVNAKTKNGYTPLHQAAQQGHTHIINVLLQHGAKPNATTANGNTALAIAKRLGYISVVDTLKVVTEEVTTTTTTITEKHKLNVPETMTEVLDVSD
# T3: AnkB_R13-24 (C-terminal 12 ANK repeats of AnkB) (human, UniProt Q01484-2 430-827)
# T3 construct: numbers count on: human 220 kDa AnkB NM_020977.3; also called AnkB C-terminal 12 repeats; source: E. coli BL21 (DE3), purified (Ni2+-NTA, size exclusion)
# T3 sequence (looked up): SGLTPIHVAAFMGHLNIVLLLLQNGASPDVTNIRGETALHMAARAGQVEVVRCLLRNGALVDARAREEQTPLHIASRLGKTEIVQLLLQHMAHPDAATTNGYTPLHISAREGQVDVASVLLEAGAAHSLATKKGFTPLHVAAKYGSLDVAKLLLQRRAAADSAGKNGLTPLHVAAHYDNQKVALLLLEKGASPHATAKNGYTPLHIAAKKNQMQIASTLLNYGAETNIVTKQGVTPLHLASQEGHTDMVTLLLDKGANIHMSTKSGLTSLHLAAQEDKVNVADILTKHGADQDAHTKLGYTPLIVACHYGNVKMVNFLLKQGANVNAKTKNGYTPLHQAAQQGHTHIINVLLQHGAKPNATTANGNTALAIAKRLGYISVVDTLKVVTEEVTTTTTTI
# T4: AnkG 38–855 (AnkG MBD-AI-c protein; MBD + partial AI-c) (rat, UniProt O70511-1 38-855)
# T4 construct: numbers count on: rat AnkG NM_001033984.1 (MBD-UPA); also called AnkG WT; source: E. coli BL21 (DE3), purified (Ni2+-NTA, size exclusion)
# T4 sequence (looked up): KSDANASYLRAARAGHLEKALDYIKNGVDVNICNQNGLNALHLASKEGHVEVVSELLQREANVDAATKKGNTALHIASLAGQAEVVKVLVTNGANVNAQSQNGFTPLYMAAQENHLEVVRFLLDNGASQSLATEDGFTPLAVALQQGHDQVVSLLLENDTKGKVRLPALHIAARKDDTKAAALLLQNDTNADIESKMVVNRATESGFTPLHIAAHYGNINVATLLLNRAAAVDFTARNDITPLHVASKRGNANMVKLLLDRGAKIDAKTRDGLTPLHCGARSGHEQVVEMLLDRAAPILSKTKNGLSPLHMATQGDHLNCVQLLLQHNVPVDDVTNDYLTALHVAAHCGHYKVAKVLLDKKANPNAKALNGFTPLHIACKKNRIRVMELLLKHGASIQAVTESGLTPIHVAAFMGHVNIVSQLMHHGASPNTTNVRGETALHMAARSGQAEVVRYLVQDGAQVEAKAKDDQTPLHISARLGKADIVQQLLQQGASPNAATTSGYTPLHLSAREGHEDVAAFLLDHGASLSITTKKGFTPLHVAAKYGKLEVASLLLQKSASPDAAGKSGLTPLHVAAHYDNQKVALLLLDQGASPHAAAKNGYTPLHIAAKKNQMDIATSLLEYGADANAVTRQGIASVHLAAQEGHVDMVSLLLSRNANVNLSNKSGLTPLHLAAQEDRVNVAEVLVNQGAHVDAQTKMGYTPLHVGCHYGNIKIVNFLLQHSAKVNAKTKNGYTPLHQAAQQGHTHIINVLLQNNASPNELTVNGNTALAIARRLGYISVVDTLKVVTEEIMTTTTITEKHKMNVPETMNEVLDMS
# B1: AnkB entire linker (aa 828–965) (domain or fragment, human, UniProt Q01484-2 828-965, looked up)
# chain: TEKHKLNVPETMTEVLDVSDEEGDDTMTGDGGEYLRPEDLKELGDDSLPSSQFLDGMNYLRYSLEGGRSDSLRSFSSDRSHTLSHASYLRDSAVMDDSVVIPSHQVSTLAKEAERNSYRLSWGTENLDNVALSSSPIH
# notes: numbers count on: human 220 kDa AnkB NM_020977.3; also called Linker (contains AI-c + AI-b); AnkB linker region; source: E. coli BL21 (DE3), purified (Ni2+-NTA, size exclusion)
# B2: AnkB_AI-a peptide (aa 1623–1635) (peptide, UniProt Q01484-2 1623-1635, looked up)
# peptide: HPPIVSEEDISVG
# notes: ankyrin-B (AnkB), human 220 kDa isoform, 13-residue AI-a segment of the C-terminal tail, residues 1623-1635; numbers count on: human 220 kDa AnkB NM_020977.3; The text says a peptide encompassing the AI-a segment, so it may be longer than 1623-1635; The fluorescent label of the polarisation assay is not described here (protocol of Wang et al., 2014)
# B3: AnkB 46-residue linker after the ANK repeats (aa 828–873, holds AI-c), as crystallised (domain or fragment, human, UniProt Q01484-2 828-873, looked up)
# chain: TEKHKLNVPETMTEVLDVSDEEGDDTMTGDGGEYLRPEDLKELGDD
# notes: Thr828 to Asp847 defined in the map; numbers count on: human 220 kDa AnkB NM_020977.3; Contiguous with m23 on one natural chain; also called folded back linker; source: E. coli BL21 (DE3), purified (Ni2+-NTA, size exclusion)
# B4: AnkG_AI-b (aa 875–903) (domain or fragment, rat, UniProt O70511-1 875-903, looked up)
# chain: SDGEEGEDAITGDTDKYLGPQDLKELGDD
# notes: numbers count on: rat AnkG NM_001033984.1 (MBD-UPA); source: E. coli BL21 (DE3), purified (Ni2+-NTA, size exclusion)
# B5: AnkG linker ΔAI-c (aa 861–920) (domain or fragment, rat, UniProt O70511-1 861-920, looked up)
# chain: KASAPEKLSDGEYISDGEEGEDAITGDTDKYLGPQDLKELGDDSLPAEGYVGFSLGARSA
# notes: ankyrin-G (AnkG), rat, linker residues 861-920, lacking AI-c; numbers count on: rat AnkG NM_001033984.1 (MBD-UPA); also called AnkG 861–920; shorter version of the linker; source: E. coli BL21 (DE3), purified (Ni2+-NTA, size exclusion)
# Tests used:
# Settings in all cases: both partners purified
# [1] = target: T1, AnkB_MBD (AnkB ANK repeats only, aa …); experiment: ITC; VP-ITC MicroCal, 25 °C; buffer containing 500 mM NaCl, due to poor quality of AnkB 28-827 in 100 mM NaCl buffer
# [2] = target: T2, AnkB 28–847 (MBD + partial AI-c); experiment: ITC; VP-ITC MicroCal, 25 °C; proteins in 50 mM Tris-HCl pH 7.8, 1 mM DTT, 1 mM EDTA with 100 mM or 500 mM NaCl as required; who was titrated is not told
# [3] = target: T1, AnkB_MBD (AnkB ANK repeats only, aa …); experiment: fluorescence polarisation; PerkinElmer LS-55 fluorimeter with automated polarizer, 25 °C; one-site binding model
# [4] = target: T3, AnkB_R13-24 (C-terminal 12 ANK repeats …); experiment: crystal structure; one natural chain AnkB 430-873; the linker folds back on the repeats of the same chain; crystals grown at 16 °C
# [5] = target: T4, AnkG 38–855 (AnkG MBD-AI-c protein; MBD …); experiment: ITC; VP-ITC MicroCal, 25 °C; proteins in 50 mM Tris-HCl pH 7.8, 1 mM DTT, 1 mM EDTA with 100 mM or 500 mM NaCl as required; who was titrated is not told
binder,measurement,setting,value
B1,Kd,[1],~0.044 µM
same,Kd,[2],~4.2 µM
B2,Kd,[3],~7.3 µM
B3,binding result,[4],binds
B4,binding result,[5],binds
B5,binding result,[5],binds
